Measured values: paper PMC9832876, “PpTCP18 is upregulated by lncRNA5 and controls branch number in peach (Prunus persica) through positive feedback regulation of strigolactone biosynthesis”

T1: PpTCP18 (Prunus persica, UniProt A0A251PBZ8 1-468)
T1 sequence: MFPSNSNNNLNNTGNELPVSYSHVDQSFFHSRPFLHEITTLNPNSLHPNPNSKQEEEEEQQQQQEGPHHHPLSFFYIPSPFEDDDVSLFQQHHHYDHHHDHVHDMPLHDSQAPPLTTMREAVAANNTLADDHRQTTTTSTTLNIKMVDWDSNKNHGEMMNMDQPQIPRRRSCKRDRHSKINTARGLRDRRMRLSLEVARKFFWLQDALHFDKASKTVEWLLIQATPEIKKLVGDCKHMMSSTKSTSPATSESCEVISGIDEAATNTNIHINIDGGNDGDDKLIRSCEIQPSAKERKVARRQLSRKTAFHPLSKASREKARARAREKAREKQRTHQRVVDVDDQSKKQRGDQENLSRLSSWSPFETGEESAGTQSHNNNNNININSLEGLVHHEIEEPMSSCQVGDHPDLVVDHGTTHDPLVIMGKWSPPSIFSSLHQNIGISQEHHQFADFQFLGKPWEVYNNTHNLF


Experiments:
PpTCP18 [1] = target: T1, PpTCP18; assay: EMSA; weakened by 100-fold unlabeled probe; Thermo Scientific EMSA kit, manufacturer's instructions; buffer, salt, pH and temperature not stated; details: protein: recombinant; tags: MBP; chain copies: 2; label: 5' biotin; blunt
PpTCP18 [2] = target: T1, PpTCP18; assay: EMSA; Thermo Scientific EMSA kit, manufacturer's instructions; buffer, salt, pH and temperature not stated; details: protein: recombinant; tags: MBP; chain copies: 2; label: 5' biotin; blunt

Row | Binder | binding result (PpTCP18 [1]) | binding result (PpTCP18 [2])
1 | PpMAX3 promoter probe (dsDNA) DNA 1: CGTAACCCTCCATTTAAAAAAGTGGGTCCCAAATCCCAAAGCATGAGTGGATGGAGAGGAA DNA 2: TTCCTCTCCATCCACTCATGCTTTGGGATTTGGGACCCACTTTTTTAAATGGAGGGTTACG | binds | –
2 | PpMAX4 promoter probe (dsDNA) DNA 1: ATATTGTAATTTTTCACTGGCATACTGGTCCCTAATCACCAATTAACGCAACAT DNA 2: ATGTTGCGTTAATTGGTGATTAGGGACCAGTATGCCAGTGAAAAATTACAATAT | binds | –
3 | PpMAX4 mutated probe (GGTCCC to AAAAAA) (dsDNA) DNA 1: ATATTGTAATTTTTCACTGGCATACTAAAAAATAATCACCAATTAACGCAACAT DNA 2: ATGTTGCGTTAATTGGTGATTATTTTTTAGTATGCCAGTGAAAAATTACAATAT | – | no binding
4 | PpLBO1 promoter probe (dsDNA) DNA 1: GTAAATACTCCAAACCATTACACTAGTGGGTCCTTTACTAATTACATTGTTTTAA DNA 2: TTAAAACAATGTAATTAGTAAAGGACCCACTAGTGTAATGGTTTGGAGTATTTAC | binds | –
5 | PpLBO1 mutated probe (GGGTCC to AAAAAA) (dsDNA) DNA 1: GTAAATACTCCAAACCATTACACTAGTAAAAAATTTACTAATTACATTGTTTTAA DNA 2: TTAAAACAATGTAATTAGTAAATTTTTTACTAGTGTAATGGTTTGGAGTATTTAC | – | no binding
